Data reported in the supplement of paper PMC10567573.

B1: CDC25A (parent)
chain: KKFRTKSRTWAGEKSKREMYSRLK

Variants of: B1
Assay: protein stability index of a GFP-peptide fusion (GPS, HEK-293T) (PSI 1-6); higher = more stable
Conditions: c terminus: a fixed tail appended
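Further: lentivirally expressed fusions sorted by FACS into six bins by GFP to DsRed ratio, PSI derived from sequencing read proportions per bin multiplied by bin number.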

Variant	protein stability index
K14R	2.61
K14G	4.36
K14Y	2.25
K14L	2.51
K14T	3.1
K14M	3.07
K14W	1.6
K14F	2.44
K14C	2.54
K14N	4.05
K14H	2.82
K14Q	3.09
K14S	2.44
K14V	2.41
K14A	2.82
K14P	3.36
K14I	2.71
E18D	3.12
E18F	2.88
E18C	3.07
E18N	3
E18Q	2.37
E18K	1.94
E18G	2.98

Variant	protein stability index
E18Y	1.9
E18H	2.71
E18I	3.64
E18P	2.17
E18T	2.19
E18M	2.87
E18S	2.43
E18L	2.64
E18W	4.23
E13D	3.61
E13T	3.43
E13G	3.29
E13P	3.27
E13W	3.5
E13N	2.79
E13R	3.63
E13I	3.07
E13H	3.1
E13Q	3.34
E13F	2.19
E13L	4.12
E13S	2.97
E13K	3.49
E13Y	3.25

Variant	protein stability index
W10I	2.97
W10R	3.41
W10Q	4.03
W10V	3.9
W10Y	3.14
W10P	3.55
W10A	3.89
W10G	3.92
W10C	4.02
W10S	2.79
W10N	3.6
W10F	3.47
W10H	3.76
W10T	3.56
W10D	3.9
W10M	3.66
W10L	3.53
T5H	2.81
T5I	2.5
T5S	3.71
T5A	2.15
T5Q	3.23
T5P	2.39
T5E	3.37

Variant	protein stability index
T5R	3.06
T5F	3.25
T5Y	3.24
T5G	3.33
T5N	3.56
T5V	3.85
T5M	2.62
T5W	3.02
T5C	2.87
T5K	3.12
T9L	2.74
T9K	3.48
T9R	2.29
T9F	3.17
T9D	3.54
T9A	2.79
T9V	2.55
T9Q	2.67
T9N	3.55
T9H	2.29
T9W	2.79
T9Y	3
T9C	3.12
T9P	3.12

Variant	protein stability index
T9S	3.31
S7M	2.42
S7F	2.4
S7E	2.92
S7P	3.13
S7V	2.01
S7W	3.06
S7K	3.11
S7C	2.39
S7D	3.24
S7A	3.3
S7H	3.51
S7N	3.17
S7G	2.78
S7R	3.57
S7I	2.9
S7Q	2.39
M19D	4.05
M19S	4.21
M19R	3.44
M19L	2.7
M19H	3.54
M19T	3
M19P	3.41

Variant	protein stability index
M19F	3.53
M19I	2.8
M19Y	3.24
M19E	3.79
M19A	3.13
M19Q	4.14
M19N	4.2
M19W	2.77
M19K	4.05
R22N	3.81
R22D	2.49
R22S	2.79
R22I	2.01
R22T	3.41
R22G	3.92
R22M	3.13
R22Y	2.03
R22C	3.17
R22W	2.28
R22F	2.99
R22V	3.24
R22P	2.33
R22A	2.19
R22Q	2.83

Variant	protein stability index
R22L	2.82
R22H	3.02
R22K	2.92
R4D	3.04
R4E	3.76
R4T	3.37
R4A	2.6
R4M	3.46
R4H	3.6
R4N	3.2
R4L	2.47
R4P	3.09
R4I	2.3
R4W	2.71
R4G	2.5
R4C	3.02
R4S	2.42
R4Q	3.86
R4Y	3.63
R4K	3.18
R4F	2.71
R4V	3.79
F3S	3.48
F3T	3.59

Variant	protein stability index
F3W	3.48
F3Y	3
F3R	3.51
K6C	2.71
K6F	2.37
K6M	2.91
K6G	3.23
K6T	2.81
K6I	2.01
K6Q	2.58
K6D	3.57
K6Y	2.92
K6V	2.42
K6S	2.32
K6N	2.92
K6P	2.93
K6A	1.88
K6H	3.44
K6L	2.36
R17P	4.04
R17V	2.97
R17G	2.99
R17K	2.21
R17H	3

Variant	protein stability index
R17N	2.24
R17L	2.84
R17T	3.48
R17I	3.25
R17C	3.34
R17Y	3.4
R17S	3.08
R17D	3.6
R17Q	3.17
R17A	2.77
R17F	2.86
Y20M	3.29
Y20W	2.37
Y20D	3.35
Y20Q	4.34
Y20F	2.88
Y20S	4.69
Y20V	2.92
Y20T	3.41
Y20N	3.02
Y20P	4.12
Y20H	3.01
Y20K	4.45
Y20C	3.97

Variant	protein stability index
Y20I	3.13
Y20L	2.33
L23N	4.01
L23Q	3.74
L23M	2.73
L23T	3.61
L23P	3.94
L23I	3.33
L23S	3.92
L23A	3.49
L23V	3.65
L23K	3.84
L23H	3.39
L23W	2.41
L23Y	2.57
L23C	2.87
L23R	4.46
S15A	3.72
S15L	2.58
S15M	3.2
S15V	2.52
S15K	3.14
S15H	3.12
S15Y	1.94

Variant	protein stability index
S15R	2.73
S15G	2.52
S15I	2.45
S15Q	2.38
S15D	3.3
S15C	3.4
S15F	3.34
S15N	2.52
S15T	3.88
S15W	1.3
K16N	3
K16R	1.22
K16L	3.16
K16G	2.79
K16D	3.24
K16S	3.04
K16W	2.1
K16A	2.62
K16Y	2.38
K16V	2.78
K16M	3.99
K16P	3.11
K16H	3.56
K16I	2.28

Variant	protein stability index
K16Q	3.71
A11K	2.7
A11E	2.81
A11P	3.98
A11F	2.62
A11V	2.74
A11C	2.73
A11I	2.77
A11G	3.2
A11L	2.5
A11Y	2.82
A11H	3.01
A11N	2.91
A11W	2.61
A11R	2.25
A11M	2.14
A11D	2.92
A11Q	3.28
A11S	4.42
A11T	3.22
G12I	2.43
G12S	2.64
G12E	2.82
G12C	2.61

Variant	protein stability index
G12Y	2.61
G12Q	2.86
G12L	2.11
G12V	2.64
G12P	3.93
G12T	2.6
G12F	2.68
G12W	2.5
G12K	2.42
G12M	3.44
G12N	2.26
G12A	3.21
R8W	4.2
R8S	2.7
R8L	3.86
R8K	3.31
R8D	3.57
R8N	3.38
R8F	2.88
R8E	4.16
R8V	3.32
R8A	3.48
R8Q	3.37
R8H	2.84

Variant	protein stability index
R8T	2.95
R8Y	4.25
R8P	3.21
R8M	2.25
R8I	3.39
S21C	2.56
S21I	2.25
S21N	3.21
S21Q	2.54
S21H	2.69
S21Y	2.01
S21P	2.99
S21F	2.7
S21M	3.36
S21L	3.38
S21R	2.73
S21K	3.08
S21G	3.32
S21T	2.56
S21D	2.95
S21A	2.97
S21E	3.01
